Target: the molecule itself
Experiment: crystal structure; SAD phasing, 1.5 Å; hanging-drop vapor diffusion at 291 K, 10 mg/ml Se-Met protein, well solution 1% ethylene glycol, 1.8 M ammonium sulfate, 100 mM MES pH 6.0; space group P212121; contact between symmetry-related molecules in the crystal

B1: human protein N-terminal glutamine amidohydrolase isoform 1 (hNtaq1) (enzyme)
chain: not shown
modifications: Se-Met labeled (selenomethionine in place of methionine)
notes: human N-terminal glutamine amidohydrolase isoform 1, encoded by the C8orf32 gene; 205 amino acids (Ser1 to Cys205), initial Met replaced by Ser after TEV cleavage; 202 residues modeled, Lys203, Asn204 and Cys205 disordered; Cloned by Gateway into pVP16 with N-terminal (His)6-MBP and a TEV site; also called human Ntaq1; not shown: His6, N-terminal, cleaved; MBP, N-terminal, cleaved
- binding result: binds

— paper PMC4214742, “Crystal Structure of Human Protein N-Terminal Glutamine Amidohydrolase, an Initial Component of the N-End Rule Pathway” (PLoS ONE, 2014)
